According to patent US20180326005A1 (HEAT BIOLOGICS, published 2018):
Read-outs that look alike come from different tables or passages of the source. One block for each molecule: values may come before it.

What was measured:
[1] = molecular target: polyhistidine-tagged recombinant human CD47 (human) (UniProt Q08722); assay: SPR summary table, row group CD47
[2] = molecular target: T1, neonatal receptor FcRn (human, UniProt P55899 24-297; P61769 21-119); assay: SPR summary table, row group FcRn
T1 construct: also called recombinant human FcRn

[3] = molecular target: T2, human FcγR1A (human, UniProt P12314 16-288); assay: SPR summary table, row group FcγR1A
T2 construct: also called recombinant human FcγR1A

[4] = molecular target: T3, polyhistidine-tagged recombinant human OX40 (human, UniProt P43489 29-216); assay: SPR summary table, row group OX40
T3 construct: also called recombinant OX40-his; hOX40-his; not shown: polyhistidine tag
T3 sequence (looked up): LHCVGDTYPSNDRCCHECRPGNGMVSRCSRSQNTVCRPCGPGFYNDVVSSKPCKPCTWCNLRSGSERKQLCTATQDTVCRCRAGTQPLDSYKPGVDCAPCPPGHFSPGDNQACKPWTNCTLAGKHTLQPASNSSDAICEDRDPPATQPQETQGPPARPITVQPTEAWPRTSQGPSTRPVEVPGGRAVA
From the text: (§1) Specifically, polyhistidine-tagged versions of recombinant human CD47 and human OX40 was bound to ProteOn HTG tris-NTA chips (BIORAD).

[5] = molecular target: T3, polyhistidine-tagged recombinant human …; assay: SPR summary table, row group OX40; remark: listed apart in the source
From the text: (§2) Specifically, polyhistidine-tagged versions of recombinant human PD-L1, PD-L2 and human OX40 was bound to ProteOn HTG tris-NTA chips (BIORAD).

[6] = molecular target: T3, polyhistidine-tagged recombinant human …; assay: SPR summary table, row group OX40; remark: listed apart in the source
From the text: as §2

[7] = molecular target: T4, polyhistidine-tagged recombinant human PD-L1 (human, UniProt Q9NZQ7 19-239); assay: SPR summary table, row group PD-L1
T4 construct: also called hPD-L1; not shown: polyhistidine tag
From the text: as §2

[8] = molecular target: T4, polyhistidine-tagged recombinant human …; assay: SPR, his-tagged ligand on ProteOn HTG tris-NTA chip
From the text: as §2, §1

[9] = molecular target: T5, polyhistidine-tagged recombinant human PD-L2 (human, UniProt Q9BQ51 20-219); assay: as above
T5 construct: not shown: polyhistidine tag
T5 sequence (looked up): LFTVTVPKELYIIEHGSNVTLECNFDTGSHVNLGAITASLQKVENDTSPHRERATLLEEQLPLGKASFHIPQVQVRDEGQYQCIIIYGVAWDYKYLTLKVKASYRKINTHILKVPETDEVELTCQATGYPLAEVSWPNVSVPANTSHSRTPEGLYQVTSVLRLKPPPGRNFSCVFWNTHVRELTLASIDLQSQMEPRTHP
From the text: as §2, §1

[10] = molecular target: T3, polyhistidine-tagged recombinant human …; assay: as above
From the text: as §2, §1

[11] = molecular target: human PD-L1 on cells (CHO-K1/hPD-L1, HCC827, PC3, HeLa-PD-L1) (human, UniProt Q9NZQ7 19-290); assay: cell-based or functional assay
[12] = molecular target: T1, neonatal receptor FcRn; assay: SPR summary table, row group FcRn; the text gives 73 nM for this pair
[13] = molecular target: T5, polyhistidine-tagged recombinant human …; assay: SPR summary table, row group PD-L2
From the text: as §2

[14] = molecular target: T1, neonatal receptor FcRn; assay: SPR, chip-bound Fc receptor
[15] = molecular target: T6, FcγR2B (human, UniProt P31994 46-217, limits assumed); assay: SPR, chip-bound Fc receptor
T6 sequence (looked up): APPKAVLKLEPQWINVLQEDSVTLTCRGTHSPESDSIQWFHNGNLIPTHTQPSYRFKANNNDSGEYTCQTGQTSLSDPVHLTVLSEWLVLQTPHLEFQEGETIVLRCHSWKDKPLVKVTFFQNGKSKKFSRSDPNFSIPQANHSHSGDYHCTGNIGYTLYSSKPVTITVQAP

[16] = molecular target: T2, human FcγR1A; assay: SPR, chip-bound human FcγR1A, analyte in flow
[17] = molecular target: T7, mouse PD-1-Fc (mouse, UniProt Q02242 25-169; P01868 98-324 = IgG part, limits assumed); assay: ELISA: plate-bound mOX40-hFc, two-fold dilutions of CHO-K1 culture medium, detection with rabbit anti-mPD-1 and anti-rabbit IgG-HRP
T7 construct: extracellular domain;domain: Fc; Control construct, tested as CHO-K1 culture medium; also called mPD-1-Fc; recombinant mouse PD1-Fc
From the text: (§3) A rabbit polyclonal antibody to mPD-1 was used to detect the mPD-1 domain in the chimeric protein and subsequently detected using a horseradish peroxidase (HRP)-conjugated polyclonal antibody to rabbit IgG (H+L).
as §3, with “(H+L). […] A horseradish peroxidase (HRP)-conjugated polyclonal antibody to mouse IgG (H+L) was used for the detection of the bound proteins.” for “(H+L).”

[18] = molecular target: T8, human OX40 on cells (Jurkat/hOX40, activated human T cells) (human, UniProt P43489 29-277); assay: flow cytometry, Jurkat-hOX40 against parental Jurkat cells, Fc-Fusions: PE-A
T8 construct: whole, on cells; also called Jurkat/OX40; cell surface expressed OX40
T8 sequence (looked up): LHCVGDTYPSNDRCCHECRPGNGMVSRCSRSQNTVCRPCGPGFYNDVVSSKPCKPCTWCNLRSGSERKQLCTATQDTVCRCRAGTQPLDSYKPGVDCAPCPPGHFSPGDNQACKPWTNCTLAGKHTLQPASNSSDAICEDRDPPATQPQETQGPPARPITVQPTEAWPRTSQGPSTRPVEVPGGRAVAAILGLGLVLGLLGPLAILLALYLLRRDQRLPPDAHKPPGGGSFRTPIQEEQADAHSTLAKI

T4 sequence (Q9NZQ7 19-239 limits assumed): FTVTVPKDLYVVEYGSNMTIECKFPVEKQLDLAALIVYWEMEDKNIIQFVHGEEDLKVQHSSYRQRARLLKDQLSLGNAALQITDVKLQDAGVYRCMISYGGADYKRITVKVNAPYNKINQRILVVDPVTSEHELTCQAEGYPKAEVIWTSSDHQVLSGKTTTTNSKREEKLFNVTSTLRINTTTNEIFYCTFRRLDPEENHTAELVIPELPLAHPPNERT
T2 sequence (P12314 16-288 limits assumed): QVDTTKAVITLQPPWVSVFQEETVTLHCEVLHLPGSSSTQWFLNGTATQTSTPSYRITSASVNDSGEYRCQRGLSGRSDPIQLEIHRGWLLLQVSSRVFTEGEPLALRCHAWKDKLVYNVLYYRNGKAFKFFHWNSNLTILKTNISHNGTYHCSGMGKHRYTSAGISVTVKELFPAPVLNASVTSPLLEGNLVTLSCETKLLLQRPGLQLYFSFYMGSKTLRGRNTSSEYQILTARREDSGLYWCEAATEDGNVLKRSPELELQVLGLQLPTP
Chain of polyhistidine-tagged recombinant human CD47 (human) (Q08722 19-139 limits assumed): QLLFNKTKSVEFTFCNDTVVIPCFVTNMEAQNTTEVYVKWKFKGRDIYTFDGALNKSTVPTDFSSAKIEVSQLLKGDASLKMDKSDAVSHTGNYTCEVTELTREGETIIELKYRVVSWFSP
Chain of human PD-L1 on cells (CHO-K1/hPD-L1, HCC827, PC3, HeLa-PD-L1) (Q9NZQ7 19-290): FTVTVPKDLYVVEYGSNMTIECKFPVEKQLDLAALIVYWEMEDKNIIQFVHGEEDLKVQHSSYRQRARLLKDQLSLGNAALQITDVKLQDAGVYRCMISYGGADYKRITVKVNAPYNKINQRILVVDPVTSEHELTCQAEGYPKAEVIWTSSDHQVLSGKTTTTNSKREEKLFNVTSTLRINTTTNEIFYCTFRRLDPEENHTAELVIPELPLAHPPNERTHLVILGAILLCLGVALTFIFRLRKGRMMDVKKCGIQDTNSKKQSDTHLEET
T7 sequence (Q02242 other isoform, or with tags, fused parts or gaps limits assumed): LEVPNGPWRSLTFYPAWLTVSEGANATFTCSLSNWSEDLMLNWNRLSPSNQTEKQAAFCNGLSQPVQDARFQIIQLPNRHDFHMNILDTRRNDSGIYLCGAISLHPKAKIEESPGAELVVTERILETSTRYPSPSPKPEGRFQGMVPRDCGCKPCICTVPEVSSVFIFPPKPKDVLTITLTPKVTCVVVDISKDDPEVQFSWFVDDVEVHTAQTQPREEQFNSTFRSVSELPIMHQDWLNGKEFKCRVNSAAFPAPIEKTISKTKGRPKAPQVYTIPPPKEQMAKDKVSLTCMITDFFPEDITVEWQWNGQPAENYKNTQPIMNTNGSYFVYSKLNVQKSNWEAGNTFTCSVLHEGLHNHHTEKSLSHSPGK

Molecule: CD172a-Fc (Fc fusion)
- Kd [1]: 3.16 nM
- koff [1]: 0.00239 s⁻¹
- kon [1]: 756000 M⁻¹ s⁻¹

Molecule: human immunoglobulin IgG1 (antibody)
- Kd [2]: 4.87 nM
- koff [2]: 0.0046 s⁻¹
- kon [2]: 945000 M⁻¹ s⁻¹
- Kd [3]: 17.7 nM
- koff [3]: 0.00044 s⁻¹
- kon [3]: 24900 M⁻¹ s⁻¹

B2: SL-279252 (human PD-1-Fc-OX40L) (Fc fusion)
chain: LDSPDRPWNPPTFSPALLVVTEGDNATFTCSFSNTSESFVLNWYRMSPSNQTDKLAAFPEDRSQPGQDCRFRVTQLPNGRDFHMSVVRARRNDSGTYLCGAISLAPKAQIKESLRAELRVTERRAEVPTAHPSPSPRPAGQFQSKYGPPCPSCPAPEFLGGPSVFLFPPKPKDTLMISRTPEVTCVVVDVSQEDPEVQFNWYVDGVEVHNAKTKPREEQFNSTYRVVSVLTVLHQDWLSGKEYKCKVSSKGLPSSIEKTISNATGQPREPQVYTLPPSQEEMTKNQVSLTCLVKGFYPSDIAVEWESNGQPENNYKTTPPVLDSDGSFFLYSRLTVDKSSWQEGNVFSCSVMHEALHNHYTQKSLSLSLGKIEGRMDQVSHRYPRIQSIKVQFTEYKKEKGFILTSQKEDEIMKVQNNSVIINCDGFYLISLKGYFSQEVNISLHYQKDEEPLFQLKKVRSVNSLMVASLTYKDKVYLNVTTDNTSLDDFHVNGGELILIHQNPGEFCVL
notes: Glycosylated; about 50% of the non-reduced protein ran as a dimer; also called hPD-1-Fc-OX40L
- koff [7]: 0.000176 s⁻¹
- kon [7]: 84500 M⁻¹ s⁻¹
- Kd [8]: 2.08 nM
- off-rate, fold slower than recombinant PD-1-Fc [8]: ~20 fold
- Kd [9]: 1.24 nM
- Kd [10]: 0.246 nM
- increase in IL-2 from baseline (no SL-279252) to 5 ug/mL of SL-279252, T cell co-culture with HCC827 (PD-L1high) [11]: 1.92 fold
- increase in IL-2 from baseline (no SL-279252) to 5 ug/mL of SL-279252, T cell co-culture with PC3 (PD-L1low) [11]: 1.27 fold
- Kd [12]: 9.17 nM
- koff [2]: 0.00234 s⁻¹
- kon [2]: 255000 M⁻¹ s⁻¹
- koff [13]: 6.7e-05 s⁻¹
- kon [13]: 54000 M⁻¹ s⁻¹
- Kd [14]: 73 nM
- binding result [15]: no binding
- koff [6]: 1.9e-05 s⁻¹
- kon [6]: 77300 M⁻¹ s⁻¹
- binding result [16]: no binding (tested: 500 nM)

B3: recombinant mOX40 fused to human Fc (Fc fusion, mouse, UniProt P47741 20-211, looked up)
chain: VTARRLNCVKHTYPSGHKCCRECQPGHGMVSRCDHTRDTLCHPCETGFYNEAVNYDTCKQCTQCNHRSGSELKQNCTPTQDTVCRCRPGTQPRQDSGYKLGVDCVPCPPGHFSPGNNQACKPWTNCTLSGKQTRHPASDSLDAVCEDRSLLATLLWETQRPTFRPTTVQSTTVWPRTSELPSPPTLVTPEGP
notes: also called mOX40-hFc; not shown: human Fc
- binding result [17]: no binding (tested: 1:1 (undiluted culture medium))

Now from value to molecule:

- Kd [4]: 9.28 nM
- koff [4]: 0.00069 s⁻¹
- Kd [5]: 9.28 nM
- koff [5]: 0.00069 s⁻¹
- Kd [6]: 9.28 nM
- koff [6]: 0.00069 s⁻¹
B1: recombinant human OX40L-Fc (Fc fusion, UniProt P23510 51-183, looked up)
chain: QVSHRYPRIQSIKVQFTEYKKEKGFILTSQKEDEIMKVQNNSVIINCDGFYLISLKGYFSQEVNISLHYQKDEEPLFQLKKVRSVNSLMVASLTYKDKVYLNVTTDNTSLDDFHVNGGELILIHQNPGEFCVL
notes: Positive control in SPR; not shown: Fc

- binding result [18]: no binding
B4: human PD1-Fc-TL1A (Fc fusion)
chain: LDSPDRPWNPPTFSPALLVVTEGDNATFTCSFSNTSESFVLNWYRMSPSNQTDKLAAFPEDRSQPGQDCRFRVTQLPNGRDFHMSVVRARRNDSGTYLCGAISLAPKAQIKESLRAELRVTERRAEVPTAHPSPSPRPAGQFQSKYGPPCPSCPAPEFLGGPSVFLFPPKPKDTLMISRTPEVTCVVVDVSQEDPEVQFNWYVDGVEVHNAKTKPREEQFNSTYRVVSVLTVLHQDWLSGKEYKCKVSSKGLPSSIEKTISNATGQPREPQVYTLPPSQEEMTKNQVSLTCLVKGFYPSDIAVEWESNGQPENNYKTTPPVLDSDGSFFLYSRLTVDKSSWQEGNVFSCSVMHEALHNHYTQKSLSLSLGKIEGRMDRAQGEACVQFQALKGQEFAPSHQQVYAPLRADGDKPRAHLTVVRQTPTQHFKNQFPALHWEHELGLAFTKNRMNYTNKFLLIPESGDYFIYSQVTFRGMTSECSEIRQAGRPNKPDSITVVITKVTDSYPEPTQLLMGTKSVCEVGSNWFQPIYLGAMFSLQEGDKLMVNVSDISLVDYTKEDKTFFGAFLL
notes: The entry includes the native leader; no cleavage site is stated; also called hPD1-Fc-TL1A
